According to patent US20250250357A1 (NANJING ZAIMING PHARMACEUTICAL, published 2025):

Experiments:
[1] = molecular target: T1, human MSLN-FL-his protein (human, UniProt Q13421 296-580); test: competitive ELISA; row F6-76.1
T1 construct: made in HEK293E cells, purified on nickel column; also called hMSLN-FL-his; human MSLN full-length protein; not shown: His tag
T1 sequence (Q13421 other isoform, or with tags, fused parts or gaps): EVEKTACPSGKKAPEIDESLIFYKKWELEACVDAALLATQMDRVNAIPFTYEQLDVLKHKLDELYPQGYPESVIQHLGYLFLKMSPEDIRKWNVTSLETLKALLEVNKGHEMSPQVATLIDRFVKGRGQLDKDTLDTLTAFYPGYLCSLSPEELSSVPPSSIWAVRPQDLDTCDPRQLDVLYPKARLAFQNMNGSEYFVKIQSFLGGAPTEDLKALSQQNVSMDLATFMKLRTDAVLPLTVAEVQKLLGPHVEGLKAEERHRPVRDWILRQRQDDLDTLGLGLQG

[2] = molecular target: T1, human MSLN-FL-his protein; test: SPR (Biacore), antibody captured on Protein A chip;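 note: measured at 25 °C, analyte injected 240 s in five twofold dilutions from 200 nM, dissociation up to 600 s, double-referenced, fitted with Langmuir 1:1 model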
[3] = molecular target: T1, human MSLN-FL-his protein; test: competitive ELISA; row Tab142
Description: (§1) In order to identify antigen-binding sites of antibodies, MSLN chimeric antibodies were grouped using competitive ELISA.
(§2) The chimeric antibodies were diluted to 2 μg/mL with PBS and allowed to coat 96-well high-adsorption ELISA plates at 50 μL/well. After the plates were coated at 4° C. overnight, 250 μL of a blocking buffer (PBS containing 2% (w/w) BSA) was added for two hours of blocking at room temperature. 40 μg/mL of the antibodies to be tested were added, and then the human MSLN-FL-His protein with an EC₈₀ concentration corresponding to each of the antibodies to be tested was added for incubation for 2 h. The plates were washed 5 times with PBS, an HRP-labeled anti-His secondary antibody (purchased from Genescript, Cat. No. A00612) was then added for incubation for 1 h, and the plates were washed 5 times again. A TMB substrate was added at 50 μL/well, and after 10 minutes of incubation at room temperature, a stop solution (1.0 M HCl) was added at 50 μL/well. OD₄₅₀ nm values were read using an ELISA plate reader (Insight, purchased from PerkinElmer), and the competition rate between the antibodies was calculated according to the OD₄₅₀ nm values using a formula.

[4] = molecular target: T1, human MSLN-FL-his protein; test: competitive ELISA; row F2-56.12
Description: as §1, §2

[5] = molecular target: T1, human MSLN-FL-his protein; test: competitive ELISA; row F4-94.15
Description: as §1, §2

[6] = molecular target: T1, human MSLN-FL-his protein; test: competitive ELISA; row F3-63.5
Description: as §1, §2

[7] = molecular target: T1, human MSLN-FL-his protein; test: competitive ELISA; row F6-62.5
Description: as §1, §2

[8] = molecular target: T1, human MSLN-FL-his protein; test: competitive ELISA; row Tab106
Description: as §1, §2

[9] = molecular target: T2, human MSLN-R2-his protein (human, UniProt Q13421 391-486); test: ELISA, coated antigen; no antibody (blank, column 'none')
T2 construct: also called human MSLN-R2 protein; hMSLN-R2-his; not shown: His tag
T2 sequence (Q13421 other isoform, or with tags, fused parts or gaps): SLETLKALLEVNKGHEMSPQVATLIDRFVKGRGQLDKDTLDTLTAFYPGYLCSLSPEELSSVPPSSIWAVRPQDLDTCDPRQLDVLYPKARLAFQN

[10] = molecular target: T2, human MSLN-R2-his protein; test: ELISA, coated antigen; antibody 0.1 nM
Description: (§3) The plate was sealed with a plastic film and incubated at 4° C. overnight. The next day, the plate was washed twice with PBST, and a blocking buffer [PBS+2% (w/w) BSA] was added for blocking at room temperature for 2 h. The blocking buffer was discarded, and a chimeric antibody or negative control antibody serially diluted from 100 nM was added at 50 μL/well. After incubation at 37° C. for 2 h, the plate was washed 3 times with PBST. […] After incubation at 37° C. for 2 h, the plate was washed 5 times with PBST. A TMB substrate was added at 50 μL/well for incubation at room temperature for 5-10 min, and then a stop solution (1.0 N HCl) was added at 50 μL/well.

[11] = molecular target: T2, human MSLN-R2-his protein; test: ELISA, coated antigen; antibody 100 nM
Description: as §3

[12] = molecular target: T2, human MSLN-R2-his protein; test: ELISA, coated antigen; antibody 0.01 nM
Description: as §3

[13] = molecular target: T2, human MSLN-R2-his protein; test: ELISA, coated antigen; antibody 0.0001 nM
Description: as §3

[14] = molecular target: T2, human MSLN-R2-his protein; test: ELISA, coated antigen; antibody 1 nM
Description: as §3

[15] = molecular target: T2, human MSLN-R2-his protein; test: ELISA, coated antigen; antibody 0.001 nM
Description: as §3

[16] = molecular target: T2, human MSLN-R2-his protein; test: ELISA, coated antigen; antibody 10 nM
Description: as §3

[17] = molecular target: T3, human MSLN-R3-his protein (human, UniProt Q13421 487-598); test: ELISA, coated antigen, no antibody (blank)
T3 construct: Made in HEK293E cells, purified on nickel column; also called hMSLN-R3-his; human MSLN-R3 protein; not shown: His tag
T3 sequence (Q13421 495-606): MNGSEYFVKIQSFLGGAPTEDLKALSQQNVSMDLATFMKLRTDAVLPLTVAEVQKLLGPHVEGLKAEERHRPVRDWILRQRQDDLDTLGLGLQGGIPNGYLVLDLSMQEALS

[18] = molecular target: T3, human MSLN-R3-his protein; test: ELISA, coated antigen, antibody 10 nM
Description: as §3

[19] = molecular target: T3, human MSLN-R3-his protein; test: ELISA, coated antigen, antibody 1 nM
Description: as §3

[20] = molecular target: T3, human MSLN-R3-his protein; test: ELISA, coated antigen, antibody 0.001 nM
Description: as §3

[21] = molecular target: T3, human MSLN-R3-his protein; test: ELISA, coated antigen, antibody 0.1 nM
Description: as §3

[22] = molecular target: T3, human MSLN-R3-his protein; test: ELISA, coated antigen, antibody 100 nM
Description: as §3

[23] = molecular target: T3, human MSLN-R3-his protein; test: ELISA, coated antigen, antibody 0.0001 nM
[24] = molecular target: T3, human MSLN-R3-his protein; test: ELISA, coated antigen, antibody 0.01 nM
Description: as §3

[25] = molecular target: T4, human MSLN-FL-his protein (human, UniProt Q13421 296-580); test: ELISA, coated antigen; no antibody (blank, column 'none')
T4 construct: also called human MSLN full-length protein; hMSLN-FL-his; not shown: His tag

[26] = molecular target: T4, human MSLN-FL-his protein; test: ELISA, coated antigen; antibody 0.0001 nM
Description: as §3

[27] = molecular target: T4, human MSLN-FL-his protein; test: ELISA, coated antigen; antibody 100 nM
Description: as §3

[28] = molecular target: T4, human MSLN-FL-his protein; test: ELISA, coated antigen; antibody 1 nM
Description: as §3

[29] = molecular target: T4, human MSLN-FL-his protein; test: ELISA, coated antigen; antibody 0.001 nM
Description: as §3

[30] = molecular target: T4, human MSLN-FL-his protein; test: ELISA, coated antigen; antibody 10 nM
Description: as §3

[31] = molecular target: T4, human MSLN-FL-his protein; test: ELISA, coated antigen; antibody 0.01 nM
Description: as §3

[32] = molecular target: T4, human MSLN-FL-his protein; test: ELISA, coated antigen; antibody 0.1 nM
Description: as §3

| competition rate [1] [%] | Kd [2] [nM] | koff [2] [s⁻¹] | kon [2] [M⁻¹ s⁻¹] | competition rate [3] [%] | competition rate [4] [%] | competition rate [5] [%] | competition rate [6] [%] | competition rate [7] [%] | competition rate [8] [%] | Binder | also measured |
| --- | --- | --- | --- | --- | --- | --- | --- | --- | --- | --- | --- |
| 99 | 1.2 | 0.000185 | 154000 | 26 | 101 | 100 | -10 | -262 | 19 | S009-F4-94.15 (antibody, human IgG1, kappa, V domains shown, human-murine chimeric antibody, human IgG1/kappa constant regions) VH: QVQLHQPGAELVRPGSSVKLSCKASGYTFTSYWVHWVQQRPRQGLEWIGNIDPSDSEIHYNQKFKDKATLTVDKSSSTAYIHLSRLTSEDSAIYYCVRGGVPWFAYWGQGTLVTVSA VL: QIVLTQSPAIMSASPGEKVTLTCSASSSVSSTYLYWFQQKPGSSPKVWIYSTSNLASGVPARFSGSGSGTSYSLTISSMEAEDAASYFCHQWISYPYTFGGGTKLEIKR |  |
| -3 | 105 | 0.000478 | 4560 | 2 | -77 | 11 | 58 | -366 | 15 | S009-F3-63.5 (antibody, human IgG1, kappa, V domains shown, human-murine chimeric antibody, human IgG1/kappa constant regions) VH: QVQLQQSGAELVRPGASVTLSCKASGYTFTDYEMHWVKQTPVHGLEWIGGIDPETGDTAYNQQFKGKAILTADRSSSTAYMELRSLTSEDSAVYYCTNYASSREDYWGQGTTLTVSS VL: not shown |  |
| 98 | 10.1 | 0.000369 | 36700 | 39 | 99 | 94 | 2 | 60 | 27 | S009-F6-76.1 (antibody, human IgG1, kappa, V domains shown, human-murine chimeric antibody, human IgG1/kappa constant regions) VH: QVQLQQSGPELVKPGASVKISCKASGYTFTDYYINWVKQRPGQGLEWIGWIFPGRGSTFYYEKFKGKATLTVDKSSSTAYMLLSSLTSEDSAVYFCARRGDSAGYEDLDYWGQGTSVTVSS VL: NIVMTQSPKFMSMSVGERVTLSCKASENVVTYVSWYQQKPKQSPKLLIYGASKRYTGVPDRFTGSGSATDFTLTISSVQAEDLGDYHCGQSYSYPYTFGGGTKLEIKR |  |
|  |  |  |  |  |  |  |  |  |  | Tab106 (YP218, hIgG1) (antibody, V domains shown, Control antibody: YP218 VH and VL recombined into human IgG1 CH and CL expression vectors; also called YP218 human IgG1 antibody) VH: QQQLEESGGGLVKPEGSLTLTCKASGFDLGFYFYACWVRQAPGKGLEWIACIYTAGSGSTYYASWAKGRFTISKASSTTVTLQMTSLAAADTATYFCARSTANTRSTYYLNLWGPGTLVTVSS VL: DVVMTQTPASVSEPVGGTVTIKCQASQRISSYLSWYQQKPGQRPKLLIFGASTLASGVPSRFKGSGSGTEYTLTISDLECADAATYYCQSYAYFDSNNWHAFGGGTEVVVRT | OD450 [9]: 0.07 OD450; OD450 [10]: 0.08 OD450; OD450 [11]: 2.07 OD450; OD450 [12]: 0.06 OD450; OD450 [13]: 0.06 OD450; OD450 [14]: 0.3 OD450; OD450 [15]: 0.06 OD450; OD450 [16]: 1.39 OD450 |
|  |  |  |  |  |  |  |  |  |  | Tab106 (YP218, hIgG1) (antibody, V domains shown, Control: YP218 VH and VL recombined into human IgG1 CH and CL expression vectors; also called YP218 human IgG1 antibody) VH: QQQLEESGGGLVKPEGSLTLTCKASGFDLGFYFYACWVRQAPGKGLEWIACIYTAGSGSTYYASWAKGRFTISKASSTTVTLQMTSLAAADTATYFCARSTANTRSTYYLNLWGPGTLVTVSS VL: DVVMTQTPASVSEPVGGTVTIKCQASQRISSYLSWYQQKPGQRPKLLIFGASTLASGVPSRFKGSGSGTEYTLTISDLECADAATYYCQSYAYFDSNNWHAFGGGTEVVVRT | OD450 [17]: 0.07; OD450 [18]: 1.69; OD450 [19]: 1.57; OD450 [20]: 0.06; OD450 [21]: 0.88; OD450 [22]: 1.79; OD450 [23]: 0.05; OD450 [24]: 0.18 |
| 57 | 120 | 0.0173 | 144000 | 28 | -143 | 25 | -17 | -76 | 30 | S009-F6-62.5 (antibody, human IgG1, kappa, V domains shown, human-murine chimeric antibody, human IgG1/kappa constant regions) VH: QVQLQQPGTELVKPGASVKLSCRASGYTFTAYWMHWVKQRPGQGLEWIGNINPSNGGTDFNEKFKSKATLTVDKSSSTAYMQLSSLTSEDSAVYYCARGRGYFDVWGTGTTVTVSS VL: DILLTQSPAILSVSPGERVSFSCRASKNIGTSIHWYQQRTNGSPRLLIKYASESISGIPSRFSGSGSGTDFTLNINSVESEDIADYYCQQSNSWPTLTFGAGTKLELKR |  |
|  |  |  |  |  |  |  |  |  |  | S009-F6-62.5 (antibody, human IgG1, kappa, V domains shown, Human-murine chimeric antibody, human IgG1/kappa constant regions) VH: QVQLQQPGTELVKPGASVKLSCRASGYTFTAYWMHWVKQRPGQGLEWIGNINPSNGGTDFNEKFKSKATLTVDKSSSTAYMQLSSLTSEDSAVYYCARGRGYFDVWGTGTTVTVSS VL: DILLTQSPAILSVSPGERVSFSCRASKNIGTSIHWYQQRTNGSPRLLIKYASESISGIPSRFSGSGSGTDFTLNINSVESEDIADYYCQQSNSWPTLTFGAGTKLELKR | OD450 [25]: 0.05 OD450; OD450 [26]: 0.05 OD450; OD450 [27]: 3.22 OD450; OD450 [28]: 3.13 OD450; OD450 [29]: 0.27 OD450; OD450 [30]: 3.11 OD450; OD450 [31]: 0.94 OD450; OD450 [32]: 2.45 OD450 |
| 93 | 43.1 | 0.00312 | 72400 | 3 | 97 | 87 | -24 | -233 | 1 | S009-F2-56.12 (antibody, human IgG1, kappa, V domains shown, human-murine chimeric antibody, human IgG1/kappa constant regions) VH: DVQLQESGPGMVKPSQSLSLTCTVTGYSITSGYDWHWIRHFPGNKLEWMGYISYSGSTNYNPSLKSRISITHDTSKNHFFLKLKSVTTEDTATYYCARGTGPDYWGQGTTLTVSS VL: DIVMTQSQKFMSTSVGDRVSITCKASQNVRTAVAWYQQKPGQSPKALIHLPSNRHTGVPDRFTGSGSGTDFTLTISNVQSEDLADYFCLQHWNYPLTFGGGTKLEIKR |  |
